Measurements: patent US20160251435A1 (INHIBRX, published 2016)

What was measured:
[1] = target: T1, human CD47, endogenous cell surface form (Raji, CCRF-CEM cells) (human, UniProt Q08722 19-323); assay: flow cytometry on CCRF-CEM cells, FITC anti-mouse IgG, MFI-FL1
T1 construct: the cells carry endogenous CD47; also called cell surface CD47
Source text: Bound CD47 antibodies were detected using a FITC conjugated anti-mouse IgG secondary antibody (Jackson ImmunoResearch).

[2] = target: T1, human CD47, endogenous cell surface …; assay: apparent KD, flow cytometry on Raji cells, non-linear fit of median fluorescence
[3] = target: T1, human CD47, endogenous cell surface …; assay: flow cytometry blocking: SIRPa-Fc binding to CCRF-CEM cells with rising antibody
[4] = target: T2, recombinant His-tagged-CD47-IgV (human, UniProt Q08722 19-134); assay: blocking ELISA: SIRPa-Fc binding to immobilised His-CD47-IgV with rising antibody
T2 construct: not shown: His tag

[5] = target: T1, human CD47, endogenous cell surface …; assay: flow cytometry on Raji cells (CD20-gated), signal normalised to the maximum of the antibody on that cell population
Procedure: (§1) Cynomolgus peripheral blood mononuclear cells (PBMCs) were isolated from cynomolgus whole blood by ficoll-paque gradient centrifugation. […] Cells were analyzed by flow cytometry, first gated on live cells by FSC and SSC, then on cells positive for FL4 (CD20 positive), and lastly the median FL1 (CD47 positive) was measured. The data were normalized by dividing the signal at each concentration by the maximum signal for each antibody on each cell population.

[6] = target: T3, cynomolgus monkey CD47 on cynomolgus B-cells (cynomolgus monkey, UniProt A0A5F8AK49 19-323 (rhesus entry)); assay: flow cytometry on cynomolgus B-cells (CD20-gated PBMC), signal normalised to the maximum of the antibody on that cell population
T3 construct: whole, on cells; also called cyno CD47
Procedure: as §1

[7] = target: human CD47, endogenous cell surface form (Raji, CCRF-CEM cells) (human) (UniProt Q08722); assay: cell-based or functional assay
[8] = target: human CD47, endogenous cell surface form (Raji, CCRF-CEM cells) (human) (UniProt Q08722); assay: flow cytometry on CCRF-CEM cells, FITC anti-mouse IgG, MFI-FL1
[9] = target: human CD47, endogenous cell surface form (Raji, CCRF-CEM cells) (human) (UniProt Q08722); assay: apparent KD, flow cytometry on Raji cells, non-linear fit of median fluorescence
[10] = target: human CD47, endogenous cell surface form (Raji, CCRF-CEM cells) (human) (UniProt Q08722); assay: flow cytometry blocking: SIRPa-Fc binding to CCRF-CEM cells with rising antibody

| Binder | EC50 (read off the curve) [1] [nM] | Kd [2] [nM] | IC50 (read off the curve) [3] [nM] | IC50 (read off the curve) [4] [nM] | EC50 (read off the curve) [5] [nM] | EC50 (read off the curve) [6] [nM] | phagocytosis of CFSE-labeled CCRF-CEM tumor cells by human monocyte derived macrophages [7] [pM] | EC50 (read off the curve) [8] [nM] | Kd [9] [nM] | IC50 (read off the curve) [10] [nM] |
| --- | --- | --- | --- | --- | --- | --- | --- | --- | --- | --- |
| murine CD47 antibody 2A1 (antibody, mouse IgG1, V domains shown, Hybridoma-derived mouse IgG1; also called 2A1-mIgG1; 2A1mIgG1) VH: EVQLQQSGAELVRSGASVKLSCTASGFNIKDYYLHWVKQRPEQGLEWIGWIDPDNGDTEFAPKFQGKATMTADTSSNTAYLQLSSLTSEDTAVYYCNAAYGSSSYPMDYWGQGTSVTV VL: DIKMTQSPSSLYASLGERVTITCKASQDIHRYLSWFQQKPGKSPKILIYRANRLVDGVPSRFSGSGSGQDYSLTISSLEYEDMGIYYCLQYDEFPYTFGGGTKLEMK | ~0.4 | 0.0936 | ~0.7 | ~5 | ~0.4 | ~0.4 | – | – | – | – |
| B6H12 CD47 antibody (antibody, from another filing, V domains shown) VH: EVKLVESGGDLVKPGGSLKLSCAASGFTFSGYGMSWVRQTPDKRLEWVATITSGGTYTYYPDSVKGRFTISRDNAKNTLYLQIDSLKSEDTAIYFCARSLAGNAMDYWGQGTSVTVSS VL: DIVMTQSPATLSVTPGDRVSLSCRASQTISDYLHWYQQKSHESPRLLIKFASQSISGIPSRFSGSGSGSDFTLSINSVEPEDVGVYYCQNGHGFPRTFGGGTKLEIK | – | – | – | – | – | – | > 66.7 | 3 | 3.79 | 9 |
